# Reference: IntAct's records for PubMed 17576925
# B1: Long-distance movement protein (Groundnut rosette virus (strain MC1)), Q67684 (parent)
# chain: MDTTPASRGQWPVGIMSSVINVFASGKSCNSGGAPRSSVRRGHRAGAARDKSRGFDAPPRRPKGGVHPATTSKDPNKDIRGPPAPTPHKKYRGPAIPGEGRSGVHTTRPRRRAGRSGGMDPRQLVAQPQQRWAKTEIPTERRAEIDGLLPSLLNTLDGQIQGDAALLRYCVGAIKRELRRRWESVQPAHHVAASSGKPSPQLFNEAAQNAEDLSGDGKGCAGQSVQQEVLHSGSGVPPVCADCGKPAANKW
# partner: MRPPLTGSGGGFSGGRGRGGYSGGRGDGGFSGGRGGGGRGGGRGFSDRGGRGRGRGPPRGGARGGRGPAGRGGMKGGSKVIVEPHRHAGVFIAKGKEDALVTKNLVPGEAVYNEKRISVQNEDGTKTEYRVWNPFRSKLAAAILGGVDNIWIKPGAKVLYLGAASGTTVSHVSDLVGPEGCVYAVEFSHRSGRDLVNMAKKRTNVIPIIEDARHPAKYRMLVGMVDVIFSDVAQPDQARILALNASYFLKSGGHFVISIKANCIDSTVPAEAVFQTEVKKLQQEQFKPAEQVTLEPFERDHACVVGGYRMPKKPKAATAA
# Variants of: B1
# Settings: with fbrl2_arath FIB2, Q94AH9
row,Variant,effect of a mutation on the interaction
1,L149A,disrupting interaction strength
